Data published in patent publication US20230348854A1.

Experiments:
[1] = biological target: Human CD94/NKG2A inhibitory receptor (CD159a), on NK cells (human) (UniProt Q13241); test: cell-based or functional assay
[2] = biological target: Human NKp46 (NCR1, CD335), on cells (human) (UniProt O76036); test: cell-based or functional assay
Chain of UniProt O76036 (O76036 22-304 Q82K limits assumed): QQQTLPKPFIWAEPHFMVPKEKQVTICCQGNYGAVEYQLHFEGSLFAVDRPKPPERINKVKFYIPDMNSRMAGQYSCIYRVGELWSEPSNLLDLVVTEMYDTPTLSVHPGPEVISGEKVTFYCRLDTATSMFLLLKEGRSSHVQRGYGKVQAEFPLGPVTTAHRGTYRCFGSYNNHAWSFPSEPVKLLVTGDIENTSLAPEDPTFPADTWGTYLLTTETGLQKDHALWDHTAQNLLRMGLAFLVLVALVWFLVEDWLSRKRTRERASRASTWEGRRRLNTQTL

| Substance | autologous primary NK cells killed, 2:1 E:T [1] | percentage of live NKp46-expressing K562 target cells after 24 hours with CAR T cells, 2:1 [2] |
| --- | --- | --- |
| anti-NKG2A (HLA-E) CAR (αNKG2A CAR): G peptide/B2M/HLA-E 01:03 single-chain trimer fused to 4-1BB/CD3 zeta, expressed on primary human T cells (peptide-MHC) | 64% | – |
| anti-CD19 CAR (αCD19 control CAR), expressed on primary human T cells (scFv) | – | 16.2% |
